The values below come from paper PMC8105673.

This assay addresses scavenger receptor CD36 (human (endogenous in THP-1)) (UniProt P16671). Kind of assay: flow cytometry on cells; THP-1-derived M1 macrophages pre-incubated with 50 μM HSAUT, HSA_(HOCl) or buffer for 15 min at 0 °C (surface binding, no internalization), then stained with a PE-conjugated anti-CD36 blocking antibody; binding of HSA read indirectly as loss of antibody staining. (A flow cytometer gives signals particle by particle.)
Chain of UniProt P16671 (P16671 whole entry): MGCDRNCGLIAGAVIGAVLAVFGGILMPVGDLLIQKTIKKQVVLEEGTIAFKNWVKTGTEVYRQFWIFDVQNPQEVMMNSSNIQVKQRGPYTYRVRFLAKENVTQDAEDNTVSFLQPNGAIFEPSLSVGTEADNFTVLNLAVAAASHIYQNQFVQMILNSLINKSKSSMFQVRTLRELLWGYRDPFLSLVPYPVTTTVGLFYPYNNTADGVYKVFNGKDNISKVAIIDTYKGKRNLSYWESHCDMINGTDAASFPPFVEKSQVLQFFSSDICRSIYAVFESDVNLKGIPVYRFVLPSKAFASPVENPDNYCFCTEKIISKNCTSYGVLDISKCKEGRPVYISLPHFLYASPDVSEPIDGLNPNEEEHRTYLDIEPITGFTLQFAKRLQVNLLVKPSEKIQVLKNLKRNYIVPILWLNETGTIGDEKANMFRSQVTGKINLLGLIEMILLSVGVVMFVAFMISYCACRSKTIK

The substance “HOCl-modified human serum albumin (from UniProt P02768 25-609) (natural protein)” showed a reduction of the binding of anti-CD36 antibody to the cells of 30%.
